From patent publication US20230227545A1 (published 2023)

Key:
[1] = target: T1, human IL-1β (human, UniProt P01584 117-269); test: cell-based or functional assay
[2] = target: T1, human IL-1β; test: cell-based or functional assay; remark: listed apart in the source
[3] = target: T1, human IL-1β; test: cell-based or functional assay; remark: listed apart in the source
[4] = target: T2, cynomolgus IL-1β (cynomolgus macaque, UniProt P79182 117-268); test: cell-based or functional assay
T2 sequence (looked up): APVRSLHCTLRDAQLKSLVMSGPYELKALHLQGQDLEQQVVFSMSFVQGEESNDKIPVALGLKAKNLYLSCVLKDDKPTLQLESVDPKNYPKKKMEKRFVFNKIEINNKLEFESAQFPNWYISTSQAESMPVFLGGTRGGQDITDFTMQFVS

[5] = target: T3, mouse IL-1β (mouse, UniProt P10749 118-269); test: SPR, Biacore 8K, mAb captured on anti-human Fc chip, soluble IL-1β as analyte
T3 construct: also called mouse IL-β
T3 sequence (looked up): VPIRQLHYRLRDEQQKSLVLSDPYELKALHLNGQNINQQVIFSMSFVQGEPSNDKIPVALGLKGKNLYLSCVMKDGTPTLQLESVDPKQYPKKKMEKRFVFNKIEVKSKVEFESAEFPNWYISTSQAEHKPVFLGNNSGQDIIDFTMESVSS
Description: (§1) Affinity assessment of 05H21A, 15N14A, and 08F17A against human IL-1β was performed by Surface Plasmon Resonance (SPR) using a Biacore 8k. Cross-reactivity of the same antibody panel was also assessed against cyno, mouse, rat and pig IL-1β.
(§2) SPR is a label-free technique to study the strength of an interaction between two binding partners by measuring the change in mass upon complex formation and dissociation. Briefly, antibodies were immobilized on a sensor chip which was coupled with goat anti-human Fc (GAH-Fc C1 sensor chip). Soluble IL-1β was flowed over the immobilized antibody and association/dissociation responses were monitored. Kinetic information (on-rate and off-rate constants) were extracted by fitting sensorgrams to the 1:1 Langmuir model. Binding affinity (KD) were reported as the ratio of rate constants (koff/kₒₙ).

[6] = target: T4, pig IL-1β (pig, UniProt P26889 115-267); test: as above
T4 construct: also called pig IL-β
T4 sequence (looked up): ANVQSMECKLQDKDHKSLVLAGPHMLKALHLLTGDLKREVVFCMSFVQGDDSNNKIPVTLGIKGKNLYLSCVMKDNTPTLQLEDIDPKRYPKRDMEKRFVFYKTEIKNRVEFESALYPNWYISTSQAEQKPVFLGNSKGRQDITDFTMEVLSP
Description: as §1, §2

[7] = target: T1, human IL-1β; test: SPR, Biacore 8K, mAb captured on goat anti-human Fc C1 chip, soluble IL-1β as analyte, 1:1 Langmuir fit
Description: as §1, §2

[8] = target: T2, cynomolgus IL-1β; test: as above
Description: as §1, §2

[9] = target: T5, rat IL-1β (rat, UniProt Q63264 117-268); test: as above
T5 construct: also called rat IL-β
T5 sequence (looked up): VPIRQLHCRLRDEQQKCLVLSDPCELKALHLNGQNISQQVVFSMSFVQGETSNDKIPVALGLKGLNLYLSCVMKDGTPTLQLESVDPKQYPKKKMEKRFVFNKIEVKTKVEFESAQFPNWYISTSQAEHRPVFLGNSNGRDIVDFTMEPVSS
Description: as §1, §2

B1: 15N14A (antibody, human IgG1, lambda, V domains shown)
VH: QVQLQESGPGLVKPSETLSLTCTVSGGSISSYYWTWIRQPAGKGLEWIGRIDSSGSSKYNPTLKSRVTMSVDTSKNQFSLKLSSVTAADTAVYYCARGDSGYDWAFDYWGQGTLVTVSS
VL: QAVLTQPSSLSASPGASASLTCTLRSGINVGTYRIYWYQQKPGSPPQYLLSYKSDSDKQQGSGVPSRFSGSKDASANVGILLISGLQSEDEADYYCMIWHSSAWVFGGGTKLTVLG
notes: Lambda light chain; also called 15N14A (anti-IL-1β) mAb [IgG1: YTE]
- IC30, inhibition of rhIL-1β-induced cytokine release, NHDF donor 29114 [1]: 0.069 nM
- IC30, inhibition of rhIL-1β-induced cytokine release, NHLF donor 34325 [1]: 0.128 nM
- IC30, inhibition of rhIL-1β-induced cytokine release, NHLF donor 35234 [1]: 0.09 nM
- IC50, inhibition of rhIL-1β-induced cytokine release, NHDF donor 29114 [1]: 0.127 nM
- IC50, inhibition of rhIL-1β-induced cytokine release, NHLF donor 34325 [1]: 0.253 nM
- IC50, inhibition of rhIL-1β-induced cytokine release, NHLF donor 35234 [1]: 0.178 nM
- IC90, inhibition of rhIL-1β-induced cytokine release, NHDF donor 29114 [1]: 0.626 nM
- IC90, inhibition of rhIL-1β-induced cytokine release, NHLF donor 34325 [1]: 1.48 nM
- IC90, inhibition of rhIL-1β-induced cytokine release, NHLF donor 35234 [1]: 1.04 nM
- IC30, inhibition of IL-6 release, human PBMCs (n=5 donors), 10 pM rhIL-1β [2]: 32 pM
- IC30, inhibition of IL-6 release, human PBMCs (n=5 donors), 30 pM rhIL-1β [2]: 75 pM
- IC50, inhibition of IL-6 release, human PBMCs (n=5 donors), 10 pM rhIL-1β [2]: 56 pM
- IC50, inhibition of IL-6 release, human PBMCs (n=5 donors), 30 pM rhIL-1β [2]: 0.12 nM
- IC90, inhibition of IL-6 release, human PBMCs (n=5 donors), 10 pM rhIL-1β [2]: 0.226 nM
- IC90, inhibition of IL-6 release, human PBMCs (n=5 donors), 30 pM rhIL-1β [2]: 0.409 nM
- IC30, inhibition of rhIL-1β-induced CXCL5 release, human whole blood (5 donors) [3]: 0.364 nM
- IC30, inhibition of rhIL-1β-induced G-CSF release, human whole blood (5 donors) [3]: 0.299 nM
- IC30, inhibition of rhIL-1β-induced IL-6 release, human whole blood (5 donors) [3]: 0.36 nM
- IC50, inhibition of rhIL-1β-induced CXCL5 release, human whole blood (5 donors) [3]: 0.603 nM
- IC50, inhibition of rhIL-1β-induced G-CSF release, human whole blood (5 donors) [3]: 0.52 nM
- IC50, inhibition of rhIL-1β-induced IL-6 release, human whole blood (5 donors) [3]: 0.595 nM
- IC90, inhibition of rhIL-1β-induced CXCL5 release, human whole blood (5 donors) [3]: 2.24 nM
- IC90, inhibition of rhIL-1β-induced G-CSF release, human whole blood (5 donors) [3]: 2.18 nM
- IC90, inhibition of rhIL-1β-induced IL-6 release, human whole blood (5 donors) [3]: 2.18 nM
- IC30, inhibition of G-CSF release, cynomolgus lung fibroblasts (CLF), 15 pM rcynoIL-1β [4]: 0.129 nM
- IC30, inhibition of IL-6 release, cynomolgus dermal fibroblasts (CDF), 5 pM rcynoIL-1β [4]: 93 pM
- IC30, inhibition of IL-6 release, cynomolgus lung fibroblasts (CLF), 15 pM rcynoIL-1β [4]: 0.192 nM
- IC50, inhibition of G-CSF release, cynomolgus lung fibroblasts (CLF), 15 pM rcynoIL-1β [4]: 0.261 nM
- IC50, inhibition of IL-6 release, cynomolgus dermal fibroblasts (CDF), 5 pM rcynoIL-1β [4]: 0.156 nM
- IC50, inhibition of IL-6 release, cynomolgus lung fibroblasts (CLF), 15 pM rcynoIL-1β [4]: 0.376 nM
- IC90, inhibition of G-CSF release, cynomolgus lung fibroblasts (CLF), 15 pM rcynoIL-1β [4]: 1.63 nM
- IC90, inhibition of IL-6 release, cynomolgus dermal fibroblasts (CDF), 5 pM rcynoIL-1β [4]: 0.594 nM
- IC90, inhibition of IL-6 release, cynomolgus lung fibroblasts (CLF), 15 pM rcynoIL-1β [4]: 2.14 nM
- binding result [5]: no binding
- binding result [6]: no binding
- Kd [7]: 0.064 nM
- koff [7]: 0.000141 s⁻¹
- kon [7]: 2.2e+06 M⁻¹ s⁻¹
- Kd [8]: 0.07 nM
- koff [8]: 0.000209 s⁻¹
- kon [8]: 3.01e+06 M⁻¹ s⁻¹
- Kd [9]: 74.5 nM
- koff [9]: 0.0574 s⁻¹
- kon [9]: 771000 M⁻¹ s⁻¹
